Measurements from patent publication US6362319B1, “Glial cell line-derived neurotrophic factor” (Amgen Inc., priority 1991, dated 2002).

Assays:
[1] = test system: nigral dopaminergic nerve cells; assay: Experimental Parkinsonism in monkeys treated with MPTP; assay type: in vivo, monkeys (Cebus apella); details: intraventricular minipump, 14 days, MPTP 0.6 mg/kg
Method: A stainless-steel cannula may be implanted into the right lateral ventricle and connected to a subcutaneously-implanted osmotic minipump (Alzet 2002). The minipump contains GDNF at various concentrations or its diluent as a negative control. The pump delivers 0.5 μl/h for 14 days. Two days after the cannula-pump implant, monkeys (Cebus apella) receive an injection of 0.6 mg/kg of MPTP into the right carotid artery. Six weeks after the initial implant, animals are perfused with saline and the brain rapidly removed. The brain is dissected on ice and punches of tissue are removed from the caudate nucleus and putamen. The substantia nigra is placed in fixative. The caudate-putamen tissue is analyzed by HPLC-EC for dopamine, the substantia nigra is processed for tyrosine hydroxylase (TH) immunoreactivity.
Degeneration of nigral dopaminergic nerve cells and their axonal projections to the caudate/putamen cause experimental Parkinsonism in this monkey model. There are several experimental indications that GDNF may prevent or reduce the severity of this neuronal degeneration. […] This indicates sparing by GDNF of nigral dopaminergic nerve cells from the toxic effects of MPTP. […] This indicates sparing by GDNF of the axonal projections of the nigral dopaminergic neurons from the toxic effects of MPTP. […]

[2] = test system: serotonergic neurons in rat embryo mesencephalic cultures; assay: 3H-serotonin uptake in mesencephalic cultures; assay type: cell-based; details: uptake after 6 days in vitro
Method: FIGS. 24A-B depicts the specificity of GDNF to dopaminergic neurons. Cultures were prepared as described in Example 1B. GDNF was added on the day of plating, and uptake was measured after 6 days in vitro. A depicts dopamine uptake and B depicts serotonin uptake.
In the presence of 10 μM citalpram (obtained from Dr. C. Mytilineou, Mount Sinai School of Medicine), a known potent inhibitor of serotonin uptake in serotonin neurons, the ^3H-serotonin uptake was reduced to 15%.

[3] = test system: GABA neurons in mesencephalic cultures; assay: 14C-GABA uptake in mesencephalic cultures; assay type: cell-based, rat; details: cultures grown with GDNF for 16 days
Method: FIGS. 21A-C depicts the specificity of GDNF to dopaminergic neurons. Cultures were established as described in Example 1B. GDNF was added on the day of plating. A. ^3H-DA uptake was measured after seven days in vitro. B. ^14C-GABA uptake was measured after eight days in vitro. Cells were incubated and treated as for ^3H-DA uptake, except the uptake buffer consists of Kreb-Ringer's phosphate buffer, pH 7.4, containing 5.6 mM glucose, 1.3 mM EDTA, 10 μM amino-oxyacetic acid (to prevent GABA breakdown), 2 mM β-alanine (to inhibit glia uptake of GABA) and 0.1 μM ^14C-GABA (150 mCi/mmole, New England Nuclear, Boston, Mass.). In the presence of 1 mM diaminobutyric acid (DABA), a potent inhibitor of ^14C-GABA uptake into GABA neurons, the ^14C-uptake was reduced to 10%. Control values in the presence of DABA were subtracted from experimental values.
H^3-dopamine (^3H-DA) and ^14C-GABA uptake were measured in sister cultures of mesencephalic cells which had been grown with various concentrations of GDNF for 15 and 16 days, respectively. As described above, GDNF enhanced the ^3H-DA uptake capacity of mesencephalic dopamine neurons ˜150% over control without GDNF (FIG. 21A). […] This is also illustrated by the increase in the ^3H-DA/^14C-GABA uptake ratio calculated (FIG. 21C).

[4] = test system: sympathetic neurons from chick embryo sympathetic chain ganglia; assay: Neuronal survival assay (MTT), sympathetic chain ganglia; assay type: cell-based
Method: Cultures of primary check embryo ciliary ganglia and sympathetic chain ganglia were prepared as previously described (Collins 1978 Develop. Biol. 65:50; Manthorpe et al. 1986 Develop. Brain Res. 25:191). Briefly, ciliary or sympathetic ganglia were removed from fertile, pathogen free chicken eggs that had been incubated for 8 and 10 days, respectively, at 38° C. in a humidified atmosphere. The ganglia were chemically dissociated by exposure first to Hands' Balanced Salt Solution without divalent cations, containing 10 mM HEPES buffer pH 7.2 for 10 min at 37° C., and then by exposure to a solution of 0.125% bactotrypsin 1:250 (Difco, Detroit, Mich.) in Hanks' Balanced Salt Solution modified as above for 12 min at 37° C. Trypsinization was stopped by addition of fetal calf serum to a final concentration of 10%.
After this treatment, ganglia were transferred to a solution consisting of Dulbecco's high glucose Modified Eagle Medium without bicarbonate containing 10% fetal calf serum and 10 mM HEPES, pH 7.2 and were mechanially dissociated by trituration approximately 10 times through a glass Pasteur pipet whose opening had been fire polished and constricted to a diameter such that it took 2 seconds to fill the pipet.
The dissociated ganglia were then plated in culture medium (Dulbecco's Modified Eagle Medium supplemented with 10% fetal calf serum, 4 mM glutamine, 60 mg/L penicillin-G, 25 mM HEPES, pH 7.2) in 100 mm diameter tissue culture dishes (40 dissociated ganglia per dish) for three hours. […] After three hours, the nonadherent nerve cells were collection by centrifugation, resuspended in culture medium, and plated in 50 μl per well onto half area 96 well microtiter tissue culture plates at a density of 1500 nerve cells per well. The microtiter wells had been previously exposed to a 1 mg/ml solution of poly-L-ornithine in 10 mM sodium borate, pH 8.4 overnight at 4° C., washed in distilled water and air dried.
Ten μl of a serial dilution of the sample to be assayed for neurotrophic activity was added to each well and the dishes were incubated for 20 hours at 37° C. in a humidified atmosphere containing 7.5% CO2. After 18 hours for ciliary and 40 hours for sympathetic ganglia, 15 μl per well of a 1.5 mg/ml solution of the tetrasolium dye MTT in Dulbecco's high glucose Modified Eagle Medium without bicarbonate containing 10 mM HEPES, pH 7.2, was added and the cultures placed in the 37° C. incubator for 4 hours. Then, 75 μl of a solution of 6.7 ml of 12 M HCl per liter of isopropanol was added and the contents of each well triturated 30 times to break open the cells and suspend the dye. The absorbance of 570 nm was determined relative to a 690 nm reference for each well using an automatic microtiter plate reader (Dynatech, Chantilly, Va.). The absorbance of wells which had not received any neurotrophic agent (negative controls) was substracted from the absorbance of sample-containing wells. The resulting absorbance is proportional to the number of living cells in each well, defined as those nerve cells capable of reducing the dye. The number of trophic units of neurotrophic activity was defined as the reciprocal of the dilution that gave 50% of maximal survival of nerve cells. Specific activity was determined by dividing the number of trophic units by the amount of protein present in the sample.

B1: glial cell line-derived neurotrophic factor (protein)
chain: SNMPEDYPDQFDDVMDFIQATIKRLKRSPDKQMAVLPRRERNRQAAAANPENSRGKGRRGQRGKNRGCVLTAIHLNVTDLGLGYETKEELIFRYCSGSCDAAETTYDKILKNLSRNRRLVTDKVGQACCRPIAF
notes: dopaminergic neurotrophic protein purified from serum-free conditioned medium of rat B49 glioblastoma cells; disulfide-bonded dimer
loss of dopamine content in the caudate/putamen [1]: may also prevent the loss of dopamine content in the caudate/putamen | effect on serotonin uptake [2]: fails to increase the uptake of serontonin | 14C-GABA uptake higher than control [3]: ~20% | bioactivity in sympathetic neuron survival bioassay [4]: promotes the survival in culture of symphathetic nerve cells | ED50 for sympathetic neuron survival ([4]; chick embryo (E10) sympathetic ganglia): about 5 ng/ml
